Molecular target: MHC class II RT1.B^L (Lewis rat), isolated molecules (rat (Lewis))

Q: mycobacterial hsp65 180-188 peptide … was tested. Which IC50 did it give?
A: Its IC50 is 32 to 64 µM.
